Patent US20220143148A1, “COMPOSITIONS AND METHODS FOR MODULATING CGRP SIGNALING TO REGULATE INTESTINAL INNATE LYMPHOID CELLS” (The Broad Institute, Inc., priority 2019, published 2022)

Test system: small intestinal immune cells
Assay: Droplet-based scRNA-seq of small intestinal immune cells (LP and PP), OVA vs PBS, clustering and differential expression
Type: in vivo, mouse
Conditions: cluster ID 4, PP
Source text: To comprehensively characterize small intestinal immune cells, Applicants generated scRNA-Seq profiles for 58,067 immune cells collected from lamina propria (LP) and Peyer's patch (PP) regions at steady state and after induction of a type 2 inflammatory reaction to ovalbumin (OVA) (Brandt et al., 2003) (FIGS. 1A and 8A). To ensure sufficient representation of rare cells, Applicants combined a normalization strategy—removing by flow sorting either a portion of IgD+ naïve B cells, which are the most abundant cell type in PPs, or all CD19+ and CD3+ T cells (FIG. 8B, Methods)—with profiling of a sufficiently large number of cells number (P>0.99 to recover at least 15 cells from each cluster, Methods) by massively parallel scRNA-seq (Haber et al., 2017) (Methods). Applicants obtained 36,797 and 21,270 high quality cells passing initial filtering (Methods) from PP and LP regions, respectively.
Overall, Applicants annotated 27 cell subsets across the two compartments, spanning T cells, B cells, ILCs, dendritic cells (DCs), myeloid cells and stromal cells, in frequencies ranging from 0.07% to 14%. Briefly, Applicants first partitioned the cells from the PP regions by unsupervised clustering (Methods) into 46 clusters, retained the 97% of cells that were robustly assigned cell identities in each cluster (Methods), assigned the cells from the LP regions to the 46 clusters using a classifier (Methods), and visualized the data with scvis (Ding et al., 2018), a deep generative model-based method (FIGS. 1B and 8C, Methods). Next, Applicants identified genes that were differentially expressed between the cells in each cluster and the remaining cells (Table 1, Methods), as well as between pairs of clusters (Table 2), to elucidate identities of similar cell types/states. Applicants excluded from downstream analysis clusters mostly consisting of contaminants from epithelium, likely doublets, or cells with a small number of Unique Molecular Identifiers (UMIs) (FIGS. 1C and 8D), or lacking distinct markers (Methods). Altogether, Applicants retained 27 clusters spanning 85% of the cells and each associated with distinct marker genes (FIG. 8E, Methods).
To induce allergic reaction to OVA, 6 to 7 weeks old mice were sensitized twice, two weeks apart, with 50 μg of OVA plus 1 mg of aluminum potassium sulfate adjuvant via intraperitoneal injection. Two weeks later, mice were orally administered with 50 mg of OVA on every other day for a total of five times. 1 μg of α-CGRP peptide was administered simultaneously when indicated. Mice were deprived of food for 3-4 hours in cages with wood chip bedding for limiting antigen degradation in the stomach before each intragastric challenge.
Isolation of cells from Peyer's patches (PPs). Peyer's patches (PPs) were carefully dissected from the small intestine under a stereo microscope using a fine scissor, pierced once with a fine forcep. Tissues were digested in freshly made digestion buffer (RPMI-1640 containing 100 μg/ml Liberase™ and 50 μg/ml DNase I at 37° C. on a roto-mixer. After 15 min, tissues were very gently mixed using a 1 ml pipette. The supernatant was collected and added to ice-cold MACS buffer (pH 7.4; PBS plus 2% FCS and 2 mM EDTA). Pre-warmed (37° C.) fresh digestion buffer was added to the remaining tissues. After rotation at 37° C. for 15 min, the mixture was vigorously mixed using a 1 ml pipette for 1 min. Supernatants from the two steps were combined and passed through 70 μm filters and stained for FACS (below).
Isolation of cells from the lamina propria (LP). The small intestines were opened longitudinally and washed in ice-cold PBS. For scRNA-seq, roughly 0.5 cm of fragments from each of the distal, middle and proximal regions without visible PPs were collected. Epithelial cells were dissociated by tissue rotation in pre-warmed (37° C.) PBS containing 10 mM EDTA at 37° C. for 15 min, followed by additional incubation on ice for 15 min. Tissues were then shaken vigorously. […]

B1: OVA (protein, UniProt P01012 2-386, looked up)
Ovalbumin: GSIGAASMEFCFDVFKELKVHHANENIFYCPIAIMSALAMVYLGAKDSTRTQINKVVRFDKLPGFGDSIEAQCGTSVNVHSSLRDILNQITKPNDVYSFSLASRLYAEERYPILPEYLQCVKELYRGGLEPINFQTAADQARELINSWVESQTNGIIRNVLQPSSVDSQTAMVLVNAIVFKGLWEKAFKDEDTQAMPFRVTEQESKPVQMMYQIGLFRVASMASEKMKILELPFASGTMSMLVLLPDEVSGLEQLESIINFEKLTEWTSSNVMEERKIKVYLPRMKMEEKYNLTSVLMAMGITDVFSSSANLSGISSAESLKISQAVHAAHAEINEAGREVVGSAEAGVDAASVSEEFRADHPFLFCIKHIATNAVLFFGRCVSP
  H2-T23: percentage of expressing cells in OVA-treated group: 0.264
  Herpud1: percentage of expressing cells in OVA-treated group: 0.33
  Icos: percentage of expressing cells in OVA-treated group: 0.236
  Il2ra: percentage of expressing cells in OVA-treated group: 0.457
  Il18r1: percentage of expressing cells in OVA-treated group: 0.605
  Irf2: percentage of expressing cells in OVA-treated group: 0.306
  Irs2: percentage of expressing cells in OVA-treated group: 0.149
  Itgav: percentage of expressing cells in OVA-treated group: 0.175
  Klf13: percentage of expressing cells in OVA-treated group: 0.417
  Klrk1: percentage of expressing cells in OVA-treated group: 0.133
  Leng9: percentage of expressing cells in OVA-treated group: 0.128
  Map3k14: percentage of expressing cells in OVA-treated group: 0.133
  Mast4: percentage of expressing cells in OVA-treated group: 0.467
  Mbnl2: percentage of expressing cells in OVA-treated group: 0.162
  Minos1: percentage of expressing cells in OVA-treated group: 0.768
  Morf4l2: percentage of expressing cells in OVA-treated group: 0.317
  Neat1: percentage of expressing cells in OVA-treated group: 0.502
  Nedd8: percentage of expressing cells in OVA-treated group: 0.781
  Plekhg1: percentage of expressing cells in OVA-treated group: 0.231
  Ppp1r16b: percentage of expressing cells in OVA-treated group: 0.302
  Ppp2ca: percentage of expressing cells in OVA-treated group: 0.336
  Ptger2: percentage of expressing cells in OVA-treated group: 0.299
  Ptpn7: percentage of expressing cells in OVA-treated group: 0.337
  Raf1: percentage of expressing cells in OVA-treated group: 0.232
  Ramp3: percentage of expressing cells in OVA-treated group: 0.224
  Rassf5: percentage of expressing cells in OVA-treated group: 0.31
  Rcn2: percentage of expressing cells in OVA-treated group: 0.258
  Rel: percentage of expressing cells in OVA-treated group: 0.19
  Rgs1: percentage of expressing cells in OVA-treated group: 0.498
  Rgs3: percentage of expressing cells in OVA-treated group: 0.282
  Rnf19b: percentage of expressing cells in OVA-treated group: 0.427
  Rpa3: percentage of expressing cells in OVA-treated group: 0.175
  S100a6: percentage of expressing cells in OVA-treated group: 0.603
  S100a10: percentage of expressing cells in OVA-treated group: 0.866
  Saraf: percentage of expressing cells in OVA-treated group: 0.557
  Sat1: percentage of expressing cells in OVA-treated group: 0.744
  Scn1b: percentage of expressing cells in OVA-treated group: 0.314
  Sec11a: percentage of expressing cells in OVA-treated group: 0.376
  Serpina3g: percentage of expressing cells in OVA-treated group: 0.587
  Serpinb6b: percentage of expressing cells in OVA-treated group: 0.2
  Ssna1: percentage of expressing cells in OVA-treated group: 0.294
  Taf7: percentage of expressing cells in OVA-treated group: 0.144
  Taf10: percentage of expressing cells in OVA-treated group: 0.297
  Tagap: percentage of expressing cells in OVA-treated group: 0.461
  Tcrg-C1: percentage of expressing cells in OVA-treated group: 0.36
  Tgoln1: percentage of expressing cells in OVA-treated group: 0.286
  Timm13: percentage of expressing cells in OVA-treated group: 0.592
  Tnf: percentage of expressing cells in OVA-treated group: 0.245
  Trim8: percentage of expressing cells in OVA-treated group: 0.223
  Trps1: percentage of expressing cells in OVA-treated group: 0.17
  Tsc22d3: percentage of expressing cells in OVA-treated group: 0.489
  Tspan32: percentage of expressing cells in OVA-treated group: 0.395
  Ttc19: percentage of expressing cells in OVA-treated group: 0.152
  Tuba4a: percentage of expressing cells in OVA-treated group: 0.156
  Tubb4b: percentage of expressing cells in OVA-treated group: 0.347
  Txk: percentage of expressing cells in OVA-treated group: 0.529
  Vegfa: percentage of expressing cells in OVA-treated group: 0.131
  VgIl4: percentage of expressing cells in OVA-treated group: 0.338
  Zc3hav1: percentage of expressing cells in OVA-treated group: 0.145
  Zfand5: percentage of expressing cells in OVA-treated group: 0.252
OVA vs PBS
  1600014C10Rik: LN (average fold change): 0.467
  2010300C02Rik: LN (average fold change): 0.310
  2310001H17Rik: LN (average fold change): 0.484
  4921524J17Rik: LN (average fold change): 0.531
  Alyref: LN (average fold change): −0.564
  Amd1: LN (average fold change): −0.353
  Asb2: LN (average fold change): 0.320
  Azin1: LN (average fold change): −0.472
  Bin3: LN (average fold change): 0.452
  Bzw1: LN (average fold change): −0.190
  Cacybp: LN (average fold change): 0.291
  Cd69: LN (average fold change): −0.153
  Cdkn1a: LN (average fold change): −0.202
  Clec2d: LN (average fold change): 0.489
  Cwc25: LN (average fold change): −0.463
